Laboratory results: article PMC3670040, “Structure of Lipid Kinase p110β/p85β Elucidates an Unusual SH2-Domain-Mediated Inhibitory Mechanism” (Molecular Cell, 2011)
Like-named read-outs stand apart in the source and are kept apart here.

Columns and labels:
[1] = molecular target: T1, p110β (Mus musculus, UniProt Q8BTI9); assay: Transcreener ADP formation (fluorescence polarization), diC8-PIP2/POPS liposomes, mouse p110β complexes; assay type: biochemical; conditions: Figure 5B
T1 construct: Mouse His6-p110β(1-1064)/p85β-icSH2(423-722) complex; made in house; host or cells: Sf9 insect cells (baculovirus co-infection)
Protocol: (§1) Figure 1 Inhibition of p110β by p85-Type Regulatory Subunits and Activation of the Complexes by RTK Phosphopeptide (A) Domain organization of p110β and the regulatory subunits p85α, p85β, and p55γ. The color scheme for the domains is used for all figures, unless otherwise stated. […] The inhibition is released upon addition of the 10 μM PDGFR pY2. […] The y axis is expressed as a change in fluorescence polarization (ΔmP), which is obtained by subtracting the observed polarization for the construct at a given enzyme concentration from the maximum fluorescence polarization for that construct. The plateau in these assays arises due to the competitive nature of the ADP detection system, based on displacement of ADP-Alexa 633 tracer from the ADP^2-antibody by ADP generated during the PI3K assay (see Supplemental Experimental Procedures). All measurements were done in triplicates, and the error bars indicate the standard error of the mean (SEM). (C) Kinase activity of p110β/p85β complexes with monomeric substrate (75 μM diC8-PIP2) in the presence and absence of pY2; y axis as in (B). (D) Basal- and pY2-stimulated activities of 35 nM PI3K complexes in the absence of lipids (ATP hydrolysis). Activities are given as percent of ATP converted to ADP using the Transcreener assay. Bars indicate SEM. TEXT PRINTED IN THE PICTURE: (B) p110β/nic: EC50 (nM): 15 | (B) p110β/nic+pY2: EC50 (nM): 0.14 | (B) p110β/ic: EC50 (nM): 1 | (B) p110β/ic+pY2: EC50 (nM): 0.21 | (B) p110β/ni: EC50 (nM): 0.84 | (B) p110β/ni+pY2: EC50 (nM): 0.24 | (B) p110β/i: EC50 (nM): 0.12 | (B) p110β/i+pY2: EC50 (nM): 0.14 | (B) ΔABD-p110β: EC50 (nM): 0.06 | (B) ΔABD-p110β+pY2: EC50 (nM): 0.05 | (C) p110β/nic: EC50 (nM): 24 | (C) p110β/nic+pY2: EC50 (nM): 3 | (C) p110β/ic: EC50 (nM): 5 | (C) p110β/ic+pY2: EC50 (nM): 2 | (C) p110β/ni: EC50 (nM): 4 | (C) p110β/ni+pY2: EC50 (nM): 2 […]
(§2) Figure 3 Mutation Y677A in p85β-cSH2 Releases Inhibitory Effect on p110β (A) Kinase activity (ADP formation) of p110β in a complex with p85β-icSH2-Y677A (Y677A-ic) compared to the wild-type complex (ic) in the absence and presence of 10 μM PDGFR pY2 (ADP formation on the y axis expressed as in Figure 1B). (B) Comparison of p110β activities of 1 nM complexes with wild-type or Y677 mutant nicSH2 or icSH2 (activity shown as in Figure 1D). TEXT PRINTED IN THE PICTURE: (A) p110β/ic: EC50 (nM): 1 | (A) p110β/ic+pY2: EC50 (nM): 0.15 | (A) p110β/ic-Y677A: EC50 (nM): 0.11 | (A) p110β/ic-Y677A+pY2: EC50 (nM): 0.08 […]
(§3) The lipid kinase activity was determined using the Transcreener ADP2 FP Assay (BellBrook Labs, Madison, WI) according to manufacturer‟s specifications. This non-radioactive assay measures activity by quantitating the amount of ADP formed. The ADP formed by PI3K competes with fluorescent ADP tracer for binding to an anti-ADP antibody, thereby decreasing fluorescence polarization. Because of the competitive nature of this assay, the change in fluorescence polarization signal is not a linear function of enzyme activity, and a convenient measure of enzyme activity is the EC50, or the concentration of enzyme necessary to give half-maximal inhibition of labeled ADP binding to the antibody, for a given concentration of substrate and a fixed time of reaction at initial rate. While activity of two different enzyme constructs can be compared at a fixed concentration of protein and a fixed concentration of substrate, the assay is most reliable when about 2%-10% of the ATP is […]
(§4) Consequently, the EC50 provides a convenient way to compare the activities of various constructs. Briefly, reactions were performed in 10 μl volume in 384-well black plates (Corning 3676) and they contained final 100 μM ATP, 75 μM lipids and a series of protein concentration varying from 0.001 nM to 2.5 μM. Serial dilutions of protein heterodimers were prepared in buffer F (50 mM Hepes pH 7.5, 100 mM NaCl, 0.03% CHAPS, 4 mM DTT) in 5 μl […]
volume. […]

[2] = tested on: p110β; assay: as above; assay type: biochemical; conditions: Figure 5B, C-terminal truncation vs wild-type, diC8-PIP2/POPS, 100 μM ATP, 1 h, room temperature
Protocol: as §1, §2, §3, §4
volume. […]

T1 sequence (Q8BTI9 1-1047): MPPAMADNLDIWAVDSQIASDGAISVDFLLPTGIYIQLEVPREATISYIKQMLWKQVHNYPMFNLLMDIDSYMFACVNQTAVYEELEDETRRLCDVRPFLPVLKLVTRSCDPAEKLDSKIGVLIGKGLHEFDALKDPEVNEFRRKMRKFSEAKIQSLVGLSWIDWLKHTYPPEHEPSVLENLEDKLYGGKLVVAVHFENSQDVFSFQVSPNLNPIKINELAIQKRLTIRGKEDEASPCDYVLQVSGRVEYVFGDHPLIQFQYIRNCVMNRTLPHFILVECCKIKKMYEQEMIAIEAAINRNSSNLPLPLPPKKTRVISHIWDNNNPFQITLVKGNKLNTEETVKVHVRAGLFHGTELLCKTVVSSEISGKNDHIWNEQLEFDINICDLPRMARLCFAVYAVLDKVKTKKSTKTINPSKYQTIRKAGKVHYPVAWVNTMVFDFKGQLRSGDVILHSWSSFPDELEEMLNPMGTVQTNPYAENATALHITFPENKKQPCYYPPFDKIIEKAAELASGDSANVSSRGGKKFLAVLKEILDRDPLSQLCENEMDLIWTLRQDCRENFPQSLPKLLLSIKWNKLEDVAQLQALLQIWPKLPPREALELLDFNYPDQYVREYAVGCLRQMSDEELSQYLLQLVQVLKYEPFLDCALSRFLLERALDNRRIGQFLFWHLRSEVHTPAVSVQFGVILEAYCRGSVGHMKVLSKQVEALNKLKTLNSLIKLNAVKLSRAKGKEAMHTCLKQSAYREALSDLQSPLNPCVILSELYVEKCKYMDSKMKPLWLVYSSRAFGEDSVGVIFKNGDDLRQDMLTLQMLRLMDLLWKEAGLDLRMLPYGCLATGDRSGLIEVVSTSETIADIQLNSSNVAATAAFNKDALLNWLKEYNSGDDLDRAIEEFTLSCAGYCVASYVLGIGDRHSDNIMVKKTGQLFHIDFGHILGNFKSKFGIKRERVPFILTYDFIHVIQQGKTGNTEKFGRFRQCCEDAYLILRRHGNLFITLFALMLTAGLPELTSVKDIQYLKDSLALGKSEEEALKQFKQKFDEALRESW
T1 sequence (O08908 318-722 partner): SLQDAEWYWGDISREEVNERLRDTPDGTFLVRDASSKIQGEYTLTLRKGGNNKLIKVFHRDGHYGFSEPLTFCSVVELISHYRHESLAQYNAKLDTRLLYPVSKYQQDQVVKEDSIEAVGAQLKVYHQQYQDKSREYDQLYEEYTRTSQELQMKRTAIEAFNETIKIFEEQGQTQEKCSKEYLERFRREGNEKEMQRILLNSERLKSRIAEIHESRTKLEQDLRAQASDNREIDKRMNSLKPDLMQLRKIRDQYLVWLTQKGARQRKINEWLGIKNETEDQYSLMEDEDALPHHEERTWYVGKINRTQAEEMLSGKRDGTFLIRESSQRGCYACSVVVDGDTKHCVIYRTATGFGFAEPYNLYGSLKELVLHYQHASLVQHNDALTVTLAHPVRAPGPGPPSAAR

- basal activity with diC8-PIP2/POPS [1]: very low basal activity
- EC50 ([2]; absence of pY2, read-out: EC50 (enzyme concentration), lipid kinase activity, basal): 38 nM
- EC50 ([2]; with 10 μM PDGFR pY2, read-out: EC50 (enzyme concentration), lipid kinase activity, + pY2): 57 nM
B1: p110β-ΔCter/nic: truncation mutant lacking 17 residues from the p110β C terminus; human ΔCter (1-1053) used in cells (protein, UniProt P42338 1-1053, looked up, fragment)
chain: MCFSFIMPPAMADILDIWAVDSQIASDGSIPVDFLLPTGIYIQLEVPREATISYIKQMLWKQVHNYPMFNLLMDIDSYMFACVNQTAVYEELEDETRRLCDVRPFLPVLKLVTRSCDPGEKLDSKIGVLIGKGLHEFDSLKDPEVNEFRRKMRKFSEEKILSLVGLSWMDWLKQTYPPEHEPSIPENLEDKLYGGKLIVAVHFENCQDVFSFQVSPNMNPIKVNELAIQKRLTIHGKEDEVSPYDYVLQVSGRVEYVFGDHPLIQFQYIRNCVMNRALPHFILVECCKIKKMYEQEMIAIEAAINRNSSNLPLPLPPKKTRIISHVWENNNPFQIVLVKGNKLNTEETVKVHVRAGLFHGTELLCKTIVSSEVSGKNDHIWNEPLEFDINICDLPRMARLCFAVYAVLDKVKTKKSTKTINPSKYQTIRKAGKVHYPVAWVNTMVFDFKGQLRTGDIILHSWSSFPDELEEMLNPMGTVQTNPYTENATALHVKFPENKKQPYYYPPFDKIIEKAAEIASSDSANVSSRGGKKFLPVLKEILDRDPLSQLCENEMDLIWTLRQDCREIFPQSLPKLLLSIKWNKLEDVAQLQALLQIWPKLPPREALELLDFNYPDQYVREYAVGCLRQMSDEELSQYLLQLVQVLKYEPFLDCALSRFLLERALGNRRIGQFLFWHLRSEVHIPAVSVQFGVILEAYCRGSVGHMKVLSKQVEALNKLKTLNSLIKLNAVKLNRAKGKEAMHTCLKQSAYREALSDLQSPLNPCVILSELYVEKCKYMDSKMKPLWLVYNNKVFGEDSVGVIFKNGDDLRQDMLTLQMLRLMDLLWKEAGLDLRMLPYGCLATGDRSGLIEVVSTSETIADIQLNSSNVAAAAAFNKDALLNWLKEYNSGDDLDRAIEEFTLSCAGYCVASYVLGIGDRHSDNIMVKKTGQLFHIDFGHILGNFKSKFGIKRERVPFILTYDFIHVIQQGKTGNTEKFGRFRQCCEDAYLILRRHGNLFITLFALMLTAGLPELTSVKDIQYLKDSLALGKSEEEALKQFKQKFDEALRESW
